Experimental data as given in PMC10164398.

Assays:
Test in all cases: EMSA
[1] = biological target: NS1 (89-237) effector domain (Influenza A virus (H3N2), UniProt P03495 89-237)
eIF4E;eIF4G1 (88-653) = eIF4E;eIF4G1 (88-653) (human;human, UniProt P06730;Q04637 1-217;88-653, |)
[2] = biological target: NS1 (89-237) effector domain;eIF4E;eIF4G1 (88-653) (Influenza A virus (H3N2);human;human, UniProt P03495;P06730;Q04637 89-237;1-217;88-653, ||)
NS1 (89-237) effector domain;eIF4E;eIF4G1 (88-653), sequence (P03495 89-237, chain 1 of 3): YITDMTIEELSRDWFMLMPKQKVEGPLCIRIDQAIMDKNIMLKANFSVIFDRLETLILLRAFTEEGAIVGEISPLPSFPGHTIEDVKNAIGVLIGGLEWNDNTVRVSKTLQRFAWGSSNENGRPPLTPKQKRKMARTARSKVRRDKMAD
NS1 (89-237) effector domain;eIF4E;eIF4G1 (88-653), sequence (P06730 whole entry, chain 2 of 3, the tested form may be a part): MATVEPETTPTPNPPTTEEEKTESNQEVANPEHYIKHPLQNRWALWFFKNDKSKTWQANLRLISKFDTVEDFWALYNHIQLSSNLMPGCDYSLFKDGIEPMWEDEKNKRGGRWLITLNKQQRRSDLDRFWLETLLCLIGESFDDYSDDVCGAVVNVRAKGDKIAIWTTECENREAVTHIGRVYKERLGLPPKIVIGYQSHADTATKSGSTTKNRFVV
NS1 (89-237) effector domain;eIF4E;eIF4G1 (88-653), sequence (Q04637 88-653, chain 3 of 3): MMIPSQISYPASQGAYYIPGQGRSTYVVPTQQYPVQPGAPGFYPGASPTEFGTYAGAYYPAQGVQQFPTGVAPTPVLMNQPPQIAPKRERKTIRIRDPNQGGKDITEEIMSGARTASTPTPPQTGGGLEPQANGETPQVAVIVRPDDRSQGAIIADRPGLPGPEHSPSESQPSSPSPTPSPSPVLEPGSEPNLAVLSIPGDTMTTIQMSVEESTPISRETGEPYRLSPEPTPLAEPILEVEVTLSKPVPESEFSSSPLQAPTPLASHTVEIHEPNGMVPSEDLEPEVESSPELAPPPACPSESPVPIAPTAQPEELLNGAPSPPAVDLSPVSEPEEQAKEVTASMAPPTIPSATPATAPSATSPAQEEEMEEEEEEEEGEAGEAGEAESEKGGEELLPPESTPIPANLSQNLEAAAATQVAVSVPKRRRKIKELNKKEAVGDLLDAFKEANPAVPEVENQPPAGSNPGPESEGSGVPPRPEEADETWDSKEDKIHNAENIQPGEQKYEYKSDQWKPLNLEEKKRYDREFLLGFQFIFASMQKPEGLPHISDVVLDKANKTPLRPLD

eIF4E;eIF4G1 (88-653), sequence (P06730 whole entry, chain 1 of 2, the tested form may be a part): as the sequence (P06730 whole entry, chain 2 of 3, the tested form may be a part) above
eIF4E;eIF4G1 (88-653), sequence (Q04637 88-653, chain 2 of 2): as the sequence (Q04637 88-653, chain 3 of 3) above
NS1 (89-237) effector domain, sequence (P03495 89-237): as the sequence (P03495 89-237, chain 1 of 3) above

Does GGGUGACAGUCCUGUUU (ssRNA, 5' m7G cap (vaccinia capping)) [5'-m7G-mRNA] bind [1]?
Result: no binding

Does GGGUGACAGUCCUGUUU (ssRNA, 5' m7G cap (vaccinia capping)) [5'-m7G-mRNA] bind (eIF4E;eIF4G1 (88-653))?
Result: binds

Does GGGUGACAGUCCUGUUU (ssRNA, 5' m7G cap (vaccinia capping)) [5'-m7G-mRNA] bind [2]?
Result: binds
